Data taken from FireProtDB (doi:10.1021/bi034371e).
“And” between values parts separate entries of the source, which are not always exact repeats. Equal entries are not always repeated.

Conditions: Spinacia oleracea, pH 7, Thermal, whole UniProt chain shown
[1] = DSC, potassium phosphate 10 mM, reversible: No
[2] = DSC, potassium phosphate 10 mM, reversible: Yes, 90%
[3] = DSC, potassium phosphate 10 mM, reversible: Yes
[4] = NMR, phosphate 10 mM, reversible: No

B1: Plastocyanin, chloroplastic wild type, P00289 (protein)
chain: MATVASSAAVAVPSFTGLKASGSIKPTTAKIIPTTTAVPRLSVKASLKNVGAAVVATAAAGLLAGNAMAVEVLLGGGDGSLAFLPGDFSVASGEEIVFKNNAGFPHNVVFDEDEIPSGVDAAKISMSEEDLLNAPGETYKVTLTEKGTYKFYCSPHQGAGMVGKVTVN
Tm [1]: 67.8 °C and 67.2 °C
unfolding enthalpy (van 't Hoff) [1]: 84.6 kcal/mol and 84.1 kcal/mol
Tm [2]: 71 °C
unfolding enthalpy (van 't Hoff) [2]: 85.6 kcal/mol
Tm [3]: 71.2 °C
unfolding enthalpy (calorimetric) [3]: 118 kcal/mol
unfolding enthalpy (van 't Hoff) [3]: 82 kcal/mol
Tm [4]: 67.9 °C
unfolding enthalpy (van 't Hoff) [4]: 115 kcal/mol
